Reference: publication PMC11117807, “Comparative Study of Field-Effect Transistors Based on Graphene Oxide and CVD Graphene in Highly Sensitive NT-proBNP Aptasensors”

Key:
proBNP = proBNP (UniProt P16860 27-134); assay: aptamer-functionalised CVD graphene FET (GFET); after long-term storage; unexpected concentration-dependent response; 0.01x PBS with Tween (1x PBS: 2.7 mM KCl, 137 mM NaCl, 10 mM phosphate, pH 7.4); LOD in artificial saliva; surface blocked with ethanolamine and BSA; temperature not stated; settings: protein: commercial
proBNP, sequence (P16860 27-134): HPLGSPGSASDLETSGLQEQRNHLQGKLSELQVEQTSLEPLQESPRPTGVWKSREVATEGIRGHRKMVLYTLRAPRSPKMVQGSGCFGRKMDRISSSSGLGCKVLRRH

NT-proBNP = NT-proBNP (UniProt P16860 27-102); assay: aptamer-functionalised rGO-FET; 0.01x PBS with Tween; response 10 fg/mL to 100 pg/mL; LOD 100 fg/mL in artificial saliva; 0.01x PBS with Tween (1x PBS: 2.7 mM KCl, 137 mM NaCl, 10 mM phosphate, pH 7.4); LOD in artificial saliva; surface blocked with ethanolamine and BSA; temperature not stated; settings: protein: commercial
NT-proBNP, sequence (P16860 27-102): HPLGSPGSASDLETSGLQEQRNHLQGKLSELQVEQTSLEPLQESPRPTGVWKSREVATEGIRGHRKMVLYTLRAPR

B1: N20a aptamer (ssDNA)
DNA: GGCAGGAAGACAAACAGGTCGTAGTGGAAACTGTCCACCGTAGACCGGTTATCTAGTGGTCTGTGGTGCTGT
modifications: 5'-NH2
B1: binds (proBNP); binds (NT-proBNP).
